{
  "source": "paper PMC12412624",
  "about": "“Engineered Cas12j‐8 is a Versatile Platform for Multiplexed Genome Modulation in Mammalian Cells”",
  "key": {"[1]": {"tested_on": "T1, dCas12j-8 E547R E547R;D369A;E567A;D658A (bacteriophage (metagenome))", "T1 sequence": "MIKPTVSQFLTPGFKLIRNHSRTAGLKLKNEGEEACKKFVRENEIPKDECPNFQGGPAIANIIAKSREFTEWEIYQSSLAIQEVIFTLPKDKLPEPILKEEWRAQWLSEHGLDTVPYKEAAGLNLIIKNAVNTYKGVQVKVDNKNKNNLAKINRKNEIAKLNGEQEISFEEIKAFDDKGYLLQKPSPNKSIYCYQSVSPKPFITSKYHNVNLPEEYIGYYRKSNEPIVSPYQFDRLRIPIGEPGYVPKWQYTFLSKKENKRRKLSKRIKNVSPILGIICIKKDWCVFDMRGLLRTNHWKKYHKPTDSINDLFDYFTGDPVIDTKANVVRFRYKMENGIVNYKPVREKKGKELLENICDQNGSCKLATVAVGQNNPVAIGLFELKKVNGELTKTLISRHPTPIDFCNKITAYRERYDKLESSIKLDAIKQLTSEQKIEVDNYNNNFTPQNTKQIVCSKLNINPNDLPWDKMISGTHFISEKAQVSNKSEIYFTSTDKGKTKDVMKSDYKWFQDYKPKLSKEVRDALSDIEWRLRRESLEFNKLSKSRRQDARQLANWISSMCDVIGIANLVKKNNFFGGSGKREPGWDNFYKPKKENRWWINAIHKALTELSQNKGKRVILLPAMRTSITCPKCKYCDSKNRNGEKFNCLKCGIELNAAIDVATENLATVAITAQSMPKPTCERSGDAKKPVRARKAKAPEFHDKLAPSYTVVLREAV", "conditions": "HEK293T cells; panel 1c (compare within a panel only); scale: mean GFP / mean GFP of wild type, printed, no background subtraction"}, "[2]": {"tested_on": "T2, dCas12j-8 D234R D234R;D369A;E567A;D658A (bacteriophage (metagenome))", "T2 sequence": "T1 sequence with D234R, R547E", "conditions": "HEK293T cells; panel 1c (compare within a panel only); scale: mean GFP / mean GFP of wild type, printed, no background subtraction"}, "[3]": {"tested_on": "T3, dCas12j-8 E258R+D495R+D527R E258R;D495R;D527R;D369A;E567A;D658A (bacteriophage (metagenome))", "T3 sequence": "T1 sequence with E258R, D495R, D527R, R547E", "conditions": "HEK293T cells; panel 1e (compare within a panel only); scale: mean GFP / mean GFP of wild type, printed, no background subtraction"}, "[4]": {"tested_on": "T4, dCas12j-8 E535R E535R;D369A;E567A;D658A (bacteriophage (metagenome))", "T4 sequence": "T1 sequence with E535R, R547E", "conditions": "HEK293T cells; panel 1c (compare within a panel only); scale: mean GFP / mean GFP of wild type, printed, no background subtraction"}},
  "note": "Substitutions are numbered along the chain they refer to.",
  "data": [
    {"sequence": "CUUUCAAGACUAAUAGAUUGCUCCUUACGAGGAGACACUCCCUAUCAGUGAUAGAG / TTNACTCCCTATCAGTGATAGAG / CTCTATCACTGATAGGGAGTNAA [TetO]", "values": [
      {"measurement": "binding signal", "setting": "[1]", "value": 1.22},
      {"measurement": "binding signal", "setting": "[2]", "value": 0.475},
      {"measurement": "binding signal", "setting": "[3]", "value": 3.63},
      {"measurement": "binding signal", "setting": "[4]", "value": 0.495}
    ]}
  ]
}
